Reference: PMC6093708, “Ligand discrimination and gating in cyclic nucleotide-gated ion channels from apo and partial agonist-bound cryo-EM structures” (eLife, 2018)

Experiments:
[1] = target: T1, SthK (Winmispira thermophila, UniProt G0GA88); test: single-channel recording in horizontal lipid bilayer; assay type: biochemical; settings: very poor partial agonist; 7 mM cGMP; +100 mV; KCl, pH 7.0
T1 construct: gene Spith_0644; C-terminally truncated SthK 1-420; 19 extra N-terminal vector residues kept; expressed in E. coli C41(DE3); homotetramer in POPG/MSP1E3 nanodiscs or liposomes

[2] = target: SthK 1-420, cyclic nucleotide-gated potassium channel from Spirochaeta thermophila (Spirochaeta thermophila); test: negative stain electron microscopy; SthK in lipid nanodiscs (20 ug/mL), uranyl acetate stain, 2D classification
[3] = target: SthK 1-420, cyclic nucleotide-gated potassium channel from Spirochaeta thermophila (Spirochaeta thermophila); test: cryo-EM structure; SthK in POPG/MSP1E3 lipid nanodiscs; apo, with 2 mM cAMP or with 7 mM cGMP; 20 mM HEPES pH 8.0, 100 mM KCl; refined with C4 symmetry and without symmetry (C1)

T1 sequence (G0GA88 entry or part of it): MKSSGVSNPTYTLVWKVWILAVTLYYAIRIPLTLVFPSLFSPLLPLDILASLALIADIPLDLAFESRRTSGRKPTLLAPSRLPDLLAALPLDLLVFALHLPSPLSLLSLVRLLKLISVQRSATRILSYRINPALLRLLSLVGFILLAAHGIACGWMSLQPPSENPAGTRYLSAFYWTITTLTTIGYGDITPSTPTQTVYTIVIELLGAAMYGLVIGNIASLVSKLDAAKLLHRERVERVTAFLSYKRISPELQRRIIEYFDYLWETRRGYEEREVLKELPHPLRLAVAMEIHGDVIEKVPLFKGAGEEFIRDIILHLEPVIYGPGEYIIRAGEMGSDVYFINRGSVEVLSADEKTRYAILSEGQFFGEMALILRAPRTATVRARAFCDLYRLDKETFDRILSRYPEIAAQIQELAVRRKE

Compound	Po [1]	stoichiometry N [2]	stoichiometry N [3]
Nc1nc2c(ncn2[C@@H]2O[C@@H]3COP(=O)(O)O[C@H]3[C@H]2O)c(=O)[nH]1 [cGMP]	~ 0.003	–	–
SthK 1-420, cyclic nucleotide-gated potassium channel from Spirochaeta thermophila (natural protein)	–	4	4
